Measured values reported in IntAct's records for PubMed 23435383.

B1: DNA mismatch repair protein MLH1 (Saccharomyces cerevisiae), P38920 (parent)
chain: MSLRIKALDASVVNKIAAGEIIISPVNALKEMMENSIDANATMIDILVKEGGIKVLQITDNGSGINKADLPILCERFTTSKLQKFEDLSQIQTYGFRGEALASISHVARVTVTTKVKEDRCAWRVSYAEGKMLESPKPVAGKDGTTILVEDLFFNIPSRLRALRSHNDEYSKILDVVGRYAIHSKDIGFSCKKFGDSNYSLSVKPSYTVQDRIRTVFNKSVASNLITFHISKVEDLNLESVDGKVCNLNFISKKSISPIFFINNRLVTCDLLRRALNSVYSNYLPKGNRPFIYLGIVIDPAAVDVNVHPTKREVRFLSQDEIIEKIANQLHAELSAIDTSRTFKASSISTNKPESLIPFNDTIESDRNRKSLRQAQVVENSYTTANSQLRKAKRQENKLVRIDASQAKITSFLSSSQQFNFEGSSTKRQLSEPKVTNVSHSQEAEKLTLNESEQPRDANTINDNDLKDQPKKKQKLGDYKVPSIADDEKNALPISKDGYIRVPKERVNVNLTSIKKLREKVDDSIHRELTDIFANLNYVGVVDEERRLAAIQHDLKLFLIDYGSVCYELFYQIGLTDFANFGKINLQSTNVSDDIVLYNLLSEFDELNDDASKEKIISKIWDMSSMLNEYYSIELVNDGLDNDLKSVKLKSLPLLLKGYIPSLVKLPFFIYRLGKEVDWEDEQECLDGILREIALLYIPDMVPKVDTSDASLSEDEKAQFINRKEHISSLLEHVLFPCIKRRFLAPRHILKDVVEIANLPDLYKVFERC
partner: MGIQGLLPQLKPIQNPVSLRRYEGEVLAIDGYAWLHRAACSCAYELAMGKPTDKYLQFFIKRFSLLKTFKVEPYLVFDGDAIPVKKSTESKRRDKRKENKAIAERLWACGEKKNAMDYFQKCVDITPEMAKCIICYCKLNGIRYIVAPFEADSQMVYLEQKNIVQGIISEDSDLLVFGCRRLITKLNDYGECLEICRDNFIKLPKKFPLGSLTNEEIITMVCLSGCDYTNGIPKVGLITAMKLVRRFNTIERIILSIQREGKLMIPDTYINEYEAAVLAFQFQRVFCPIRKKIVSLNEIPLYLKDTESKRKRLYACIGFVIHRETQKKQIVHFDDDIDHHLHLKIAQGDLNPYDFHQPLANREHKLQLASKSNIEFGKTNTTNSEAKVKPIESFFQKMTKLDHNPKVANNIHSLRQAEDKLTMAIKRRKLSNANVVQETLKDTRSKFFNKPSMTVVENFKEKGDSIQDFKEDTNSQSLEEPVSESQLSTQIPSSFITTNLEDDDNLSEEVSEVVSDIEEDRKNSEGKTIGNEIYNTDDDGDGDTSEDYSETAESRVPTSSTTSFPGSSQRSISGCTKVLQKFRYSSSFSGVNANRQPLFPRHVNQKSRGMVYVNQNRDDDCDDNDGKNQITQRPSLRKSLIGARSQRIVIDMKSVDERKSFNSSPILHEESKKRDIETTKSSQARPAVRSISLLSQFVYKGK
B2: Endonuclease III homolog 2 (Saccharomyces cerevisiae), Q08214 (parent)
chain: MREESRSRKRKHIPVDIEEVEVRSKYFKKNERTVELVKENKINKDLQNYGGVNIDWIKALKPIEYFEWIESRTCDDPRTWGRPITKEEMINDSGAKVPESFLPIYNRVRLMRSKVKTPVDAMGCSMIPVLVSNKCGIPSEKVDPKNFRLQFLIGTMLSAQTRDERMAQAALNITEYCLNTLKIAEGITLDGLLKIDEPVLANLIRCVSFYTRKANFIKRTAQLLVDNFDSDIPYDIEGILSLPGVGPKMGYLTLQKGWGLIAGICVDVHVHRLCKMWNWVDPIKCKTAEHTRKELQVWLPHSLWYEINTVLVGFGQLICMARGKRCDLCLANDVCNARNEKLIESSKFHQLEDKEDIEKVYSHWLDTVTNGITTERHKKK
partner: B1 chain
B3: DNA mismatch repair protein MLH1 (Saccharomyces cerevisiae), P38920 (parent)
chain: B1 chain
partner: B2 chain

Variants of: B1
Settings: with exo1_yeast EXO1, P39875
For L511A, the “effect of a mutation on the interaction” value was “disrupting interaction strength”.

Variants of: B2
Settings: with mlh1_yeast MLH1, P38920
MREESRSRKRKHIPVDIEEVEVRSKYAKKNERTVELVKENKINKDLQNYGGVNIDWIKALKPIEYFEWIESRTCDDPRTWGRPITKEEMINDSGAKVPESFLPIYNRVRLMRSKVKTPVDAMGCSMIPVLVSNKCGIPSEKVDPKNFRLQFLIGTMLSAQTRDERMAQAALNITEYCLNTLKIAEGITLDGLLKIDEPVLANLIRCVSFYTRKANFIKRTAQLLVDNFDSDIPYDIEGILSLPGVGPKMGYLTLQKGWGLIAGICVDVHVHRLCKMWNWVDPIKCKTAEHTRKELQVWLPHSLWYEINTVLVGFGQLICMARGKRCDLCLANDVCNARNEKLIESSKFHQLEDKEDIEKVYSHWLDTVTNGITTERHKKK [F27A] was tested, and the “effect of a mutation on the interaction” value was “disrupting interaction strength”. For MREESRSRKRKHIPVDIEEVEVRSKYYKKNERTVELVKENKINKDLQNYGGVNIDWIKALKPIEYFEWIESRTCDDPRTWGRPITKEEMINDSGAKVPESFLPIYNRVRLMRSKVKTPVDAMGCSMIPVLVSNKCGIPSEKVDPKNFRLQFLIGTMLSAQTRDERMAQAALNITEYCLNTLKIAEGITLDGLLKIDEPVLANLIRCVSFYTRKANFIKRTAQLLVDNFDSDIPYDIEGILSLPGVGPKMGYLTLQKGWGLIAGICVDVHVHRLCKMWNWVDPIKCKTAEHTRKELQVWLPHSLWYEINTVLVGFGQLICMARGKRCDLCLANDVCNARNEKLIESSKFHQLEDKEDIEKVYSHWLDTVTNGITTERHKKK [F27Y], the “effect of a mutation on the interaction” value was “disrupting interaction strength”. MREESRSRKRKHIPVDIEEVEVRSKFFKKNERTVELVKENKINKDLQNYGGVNIDWIKALKPIEYFEWIESRTCDDPRTWGRPITKEEMINDSGAKVPESFLPIYNRVRLMRSKVKTPVDAMGCSMIPVLVSNKCGIPSEKVDPKNFRLQFLIGTMLSAQTRDERMAQAALNITEYCLNTLKIAEGITLDGLLKIDEPVLANLIRCVSFYTRKANFIKRTAQLLVDNFDSDIPYDIEGILSLPGVGPKMGYLTLQKGWGLIAGICVDVHVHRLCKMWNWVDPIKCKTAEHTRKELQVWLPHSLWYEINTVLVGFGQLICMARGKRCDLCLANDVCNARNEKLIESSKFHQLEDKEDIEKVYSHWLDTVTNGITTERHKKK [Y26F] was tested, and the “effect of a mutation on the interaction” value was “decreasing interaction strength”.

Variants of: B3
Settings: with nth2_yeast NTG2, Q08214
In the case of L511A, the “effect of a mutation on the interaction” value is reported as “disrupting interaction strength”.
